Experimental findings from EP4810611A2 are described below.

In assay [1] the target is TRBV9+TRAV26 antigen. Nature of the assay: BLI (OctetRed 96), antigen on AR2G sensors, antibody 126-2 nM, 1:1 model; run 1.
The target in assay [2] is TRBV9+TRAV38 antigen. The assay is described as above.
Assay [3] deals with TRBV9+TRAV26 antigen. In words: BLI (OctetRed 96), antigen on AR2G sensors, antibody 126-2 nM, 1:1 model; run 2.
The target of assay [4] is TRBV9+TRAV38 antigen. Described as above.
The target of assay [5] is TRBV9+TRAV26 antigen. Nature of the assay: BLI (OctetRed 96), antigen on AR2G sensors, antibody 126-2 nM, 1:1 model; run 3.
For assay [6], the target named is TRBV9+TRAV38 antigen. Described as above.
Assay [7] has as its target human T cell receptor with a beta-chain of the TRBV9 family, on T lymphocytes of the mononuclear fraction of human blood (human). Nature of the assay: flow cytometry, FITC-labelled antibody on human blood mononuclear cells, 5 and 0.5 ng/µl. For orientation: Flow cytometry measures light scatter and fluorescence of single cells or particles in a stream.

Usually Kd stands for the concentration at which binding is half-saturated. Low readings indicate a tighter complex, high ones a looser complex. For orientation: koff means the first-order rate constant of dissociation. Higher therefore signals fast dissociation. The term kon denotes the second-order rate constant of association.

Sequence of human T cell receptor with a beta-chain of the TRBV9 family, on T lymphocytes of the mononuclear fraction of human blood (human) (A0A0B4J1U6 22-114): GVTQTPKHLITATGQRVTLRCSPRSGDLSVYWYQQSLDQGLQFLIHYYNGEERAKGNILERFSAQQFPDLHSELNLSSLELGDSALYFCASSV

B1: anti-TRBV9-1 monoclonal antibody (antibody, human IgG1, kappa, V domains shown)
VH: QIQLVQSGPELREPGESVKLSCKASGYTFTDYLVHWVKQAPGKGLKWMGWINTYTGTPTYADDFEGRFVFSLEASASTANLQISNLKNEDTATYFCARSWRRGLRGLGFDYWGQGVFVTVSS
VL: DVQMTQSPYNLAASPGESVSINCKASKSINKYLAWYQQKPGKPNKLLIYDGSTLQSGIPSRFSGSGSGTDFTLTIRGLEPEDFGLYYCQQHNEYPPTFGAGTKLELKR
With B1, the Kd in assay [1] stood at 0.22 nM; in assay [2], 0.414 nM; in assay [3], 0.278 nM; in assay [4] it was 0.365 nM; in assay [5], 0.204 nM; in assay [6] it was 0.529 nM. In addition, the koff in assay [1] was determined as 0.000113 s⁻¹; in assay [2] it was 0.000183 s⁻¹; in assay [3], 0.000183 s⁻¹; in assay [4], 0.000205 s⁻¹; in assay [5], 0.000114 s⁻¹; in assay [6], 0.000196 s⁻¹. For the same molecule, the kon in assay [1] was found to be 515000 M⁻¹ s⁻¹; in assay [2] it was 441000 M⁻¹ s⁻¹; in assay [3] it was 658000 M⁻¹ s⁻¹; in assay [4], 562000 M⁻¹ s⁻¹; in assay [5] it was 559000 M⁻¹ s⁻¹; in assay [6] it was 371000 M⁻¹ s⁻¹.

B2: anti-TRBV9-4 monoclonal antibody (antibody, human IgG1, kappa, V domains shown)
VH: QIQLVQSGPELREPGESVKLSCKASGYTFTDYLVHWVKQAPGKGLKWMGWINTYTGTPTYADDFEGRFVFSLEASASTANLQISNLKNEDTATYFCARSWRRGIRGIGFDYWGQGVFVTVSS
VL: DVQMTQSPYNLAASPGESVSINCKASKSINKYLAWYQQKPGKPNKLLIYDGSTLQSGIPSRFSGSGSGTDFTLTIRGLEPEDFGLYYCQQHNEYPPTFGAGTKLELKR
With B2, the Kd in assay [1], in assay [2], in assay [3] and in assay [4] was below 0.001 nM in each case. The koff in assay [1], in assay [2], in assay [3] and in assay [4] was below 1e-07 s⁻¹ throughout. The kon was determined as 865000 M⁻¹ s⁻¹ in assay [1], 713000 M⁻¹ s⁻¹ in assay [2], 579000 M⁻¹ s⁻¹ in assay [3] and 476000 M⁻¹ s⁻¹ in assay [4].

B3: anti-TRBV9-2 monoclonal antibody (antibody, human IgG1, kappa, V domains shown)
VH: QIQLVQSGPELREPGESVKLSCKASGYTFTDYLVHWVKQAPGKGLKWMGWINTYTGTPTYADDFEGRFVFSLEASASTANLQISNLKNEDTATYFCARSWRRGLRGIGFDYWGQGVFVTVSS
VL: DVQMTQSPYNLAASPGESVSINCKASKSINKYLAWYQQKPGKPNKLLIYDGSTLQSGIPSRFSGSGSGTDFTLTIRGLEPEDFGLYYCQQHNEYPPTFGAGTKLELKR
In the case of B3, the Kd is 0.0135 nM in assay [1], below 0.001 nM in assay [2], below 0.001 nM in assay [3] and below 0.001 nM in assay [4]. The koff in assay [1] is 6.02e-06 s⁻¹; in assay [2], below 1e-07 s⁻¹; in assay [3] it was below 1e-07 s⁻¹; in assay [4], below 1e-07 s⁻¹. Besides, the kon in assay [1] was determined as 447000 M⁻¹ s⁻¹; in assay [2], 397000 M⁻¹ s⁻¹; in assay [3] it was 381000 M⁻¹ s⁻¹; in assay [4] it was 289000 M⁻¹ s⁻¹. Further, in assay [7], the staining, share of the CD3-positive fraction was 2.9%.

B4: anti-TRBV9-3 monoclonal antibody (antibody, human IgG1, kappa, V domains shown)
VH: QIQLVQSGPELREPGESVKLSCKASGYTFTDYLVHWVKQAPGKGLKWMGWINTYTGTPTYADDFEGRFVFSLEASASTANLQISNLKNEDTATYFCARSWRRGIRGLGFDYWGQGVFVTVSS
VL: DVQMTQSPYNLAASPGESVSINCKASKSINKYLAWYQQKPGKPNKLLIYDGSTLQSGIPSRFSGSGSGTDFTLTIRGLEPEDFGLYYCQQHNEYPPTFGAGTKLELKR
As to B4, the Kd turned out to be 0.319 nM in assay [1], 0.311 nM in assay [2], 0.582 nM in assay [3] and 0.4 nM in assay [4]. Also, the off-rate constant (koff) worked out at 9.16e-05 s⁻¹ in assay [1], 9.61e-05 s⁻¹ in assay [2], 9.8e-05 s⁻¹ in assay [3] and 9.16e-05 s⁻¹ in assay [4]. In addition, the kon stood at 287000 M⁻¹ s⁻¹ in assay [1], 309000 M⁻¹ s⁻¹ in assay [2], 168000 M⁻¹ s⁻¹ in assay [3] and 229000 M⁻¹ s⁻¹ in assay [4].
